Paper PMC4775402 (Pharmacological research, 2016)
Structures can show the parent of a compound that is named as a salt. Values belong to the molecule of their own block, whether it stands above or below them.

Columns and labels:
WT S1PR2 = WT S1PR2 (Homo sapiens, UniProt O95136); assay: Label-free DMR agonist response, HEK293T expressing WT S1PR2; format: cell-based
ΔPDZ S1PR2 = ΔPDZ S1PR2 (Homo sapiens, UniProt O95136); assay: Label-free DMR agonist response, HEK293T expressing ΔPDZ S1PR2; format: cell-based
WT HRH3 = WT HRH3 (Homo sapiens, UniProt Q9Y5N1); settings: HEK293T
ΔPDZ HRH3 = ΔPDZ HRH3 (Homo sapiens, UniProt Q9Y5N1); settings: HEK293T
WT CXCR1 = biological target: T1, WT CXCR1 (Homo sapiens, UniProt P25024); assay: Label-free DMR agonist response, HEK293T expressing WT CXCR1; format: cell-based
T1 sequence (P25024 1-350): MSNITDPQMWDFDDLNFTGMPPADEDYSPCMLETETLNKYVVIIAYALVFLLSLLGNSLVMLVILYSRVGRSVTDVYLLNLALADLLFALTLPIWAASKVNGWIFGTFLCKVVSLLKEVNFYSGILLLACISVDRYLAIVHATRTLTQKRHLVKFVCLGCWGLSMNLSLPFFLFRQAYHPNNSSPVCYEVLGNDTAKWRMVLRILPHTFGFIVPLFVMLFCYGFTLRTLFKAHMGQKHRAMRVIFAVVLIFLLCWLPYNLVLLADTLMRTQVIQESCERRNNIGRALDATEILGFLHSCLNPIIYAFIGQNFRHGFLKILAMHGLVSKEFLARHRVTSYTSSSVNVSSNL

ΔPDZ CXCR1 = biological target: T2, ΔPDZ CXCR1 (Homo sapiens, UniProt P25024); assay: Label-free DMR agonist response, HEK293T expressing ΔPDZ CXCR1; format: cell-based
T2 sequence (P25024 1-346 limits assumed): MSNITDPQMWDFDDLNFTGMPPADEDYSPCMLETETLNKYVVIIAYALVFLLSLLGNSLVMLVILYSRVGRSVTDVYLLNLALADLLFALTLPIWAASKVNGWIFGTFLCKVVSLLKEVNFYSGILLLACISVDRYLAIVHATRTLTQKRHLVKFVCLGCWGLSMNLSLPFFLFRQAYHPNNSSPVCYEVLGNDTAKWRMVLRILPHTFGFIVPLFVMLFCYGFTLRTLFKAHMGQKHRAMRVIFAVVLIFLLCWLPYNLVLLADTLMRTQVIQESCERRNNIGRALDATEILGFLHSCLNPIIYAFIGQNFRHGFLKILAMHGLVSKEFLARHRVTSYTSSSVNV

WT CXCR2 = biological target: T3, WT CXCR2 (Homo sapiens, UniProt P25025); assay: Label-free DMR agonist response, HEK293T expressing WT CXCR2; format: cell-based
T3 sequence (P25025 1-360): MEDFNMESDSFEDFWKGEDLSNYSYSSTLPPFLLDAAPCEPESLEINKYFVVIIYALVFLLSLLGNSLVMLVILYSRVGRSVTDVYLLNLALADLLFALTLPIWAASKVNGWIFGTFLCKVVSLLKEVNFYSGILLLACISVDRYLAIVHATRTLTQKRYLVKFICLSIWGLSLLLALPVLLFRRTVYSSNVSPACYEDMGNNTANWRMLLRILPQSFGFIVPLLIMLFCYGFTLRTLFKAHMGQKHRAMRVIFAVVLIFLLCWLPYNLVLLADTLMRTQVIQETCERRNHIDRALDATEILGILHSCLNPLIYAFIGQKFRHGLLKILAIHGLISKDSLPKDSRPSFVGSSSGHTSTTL

ΔPDZ CXCR2 = biological target: T4, ΔPDZ CXCR2 (Homo sapiens, UniProt P25025); assay: Label-free DMR agonist response, HEK293T expressing ΔPDZ CXCR2; format: cell-based
T4 sequence (P25025 1-356 limits assumed): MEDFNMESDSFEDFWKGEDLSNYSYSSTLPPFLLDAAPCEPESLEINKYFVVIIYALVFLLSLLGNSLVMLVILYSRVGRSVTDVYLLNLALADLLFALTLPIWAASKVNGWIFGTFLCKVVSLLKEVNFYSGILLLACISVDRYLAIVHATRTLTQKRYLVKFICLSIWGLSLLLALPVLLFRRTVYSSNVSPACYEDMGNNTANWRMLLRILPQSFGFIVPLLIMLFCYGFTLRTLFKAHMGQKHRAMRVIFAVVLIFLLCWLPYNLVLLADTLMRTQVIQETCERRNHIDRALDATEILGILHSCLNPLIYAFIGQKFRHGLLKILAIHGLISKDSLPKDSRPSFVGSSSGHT

WT CXCR3 = biological target: T5, WT CXCR3 (Homo sapiens, UniProt P49682); assay: Label-free DMR agonist response, HEK293T expressing WT CXCR3; format: cell-based
T5 sequence (P49682 1-368): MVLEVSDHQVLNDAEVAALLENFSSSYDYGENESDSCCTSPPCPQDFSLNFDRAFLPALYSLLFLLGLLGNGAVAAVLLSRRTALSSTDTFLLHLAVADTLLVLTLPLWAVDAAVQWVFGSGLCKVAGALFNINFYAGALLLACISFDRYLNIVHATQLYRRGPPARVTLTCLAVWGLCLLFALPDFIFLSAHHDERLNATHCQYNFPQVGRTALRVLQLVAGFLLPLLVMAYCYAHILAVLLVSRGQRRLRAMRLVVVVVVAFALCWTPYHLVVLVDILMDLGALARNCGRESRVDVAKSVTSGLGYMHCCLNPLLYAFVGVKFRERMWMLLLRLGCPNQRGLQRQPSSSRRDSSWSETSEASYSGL

ΔPDZ CXCR3 = biological target: T6, ΔPDZ CXCR3 (Homo sapiens, UniProt P49682); assay: Label-free DMR agonist response, HEK293T expressing ΔPDZ CXCR3; format: cell-based
T6 sequence (P49682 1-364 limits assumed): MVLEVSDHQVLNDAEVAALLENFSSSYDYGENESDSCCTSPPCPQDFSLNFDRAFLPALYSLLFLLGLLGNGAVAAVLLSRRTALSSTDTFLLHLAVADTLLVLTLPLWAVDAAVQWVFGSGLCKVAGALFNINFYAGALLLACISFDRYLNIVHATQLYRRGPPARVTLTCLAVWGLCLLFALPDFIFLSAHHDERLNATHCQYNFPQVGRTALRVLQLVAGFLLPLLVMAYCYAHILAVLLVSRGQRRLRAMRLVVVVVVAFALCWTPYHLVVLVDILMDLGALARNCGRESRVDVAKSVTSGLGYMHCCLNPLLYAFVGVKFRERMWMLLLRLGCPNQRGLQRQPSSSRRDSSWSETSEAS

WT CXCR5 = biological target: T7, WT CXCR5 (Homo sapiens, UniProt P32302); assay: Label-free DMR agonist response, HEK293T expressing WT CXCR5; format: cell-based
T7 sequence (P32302 1-372): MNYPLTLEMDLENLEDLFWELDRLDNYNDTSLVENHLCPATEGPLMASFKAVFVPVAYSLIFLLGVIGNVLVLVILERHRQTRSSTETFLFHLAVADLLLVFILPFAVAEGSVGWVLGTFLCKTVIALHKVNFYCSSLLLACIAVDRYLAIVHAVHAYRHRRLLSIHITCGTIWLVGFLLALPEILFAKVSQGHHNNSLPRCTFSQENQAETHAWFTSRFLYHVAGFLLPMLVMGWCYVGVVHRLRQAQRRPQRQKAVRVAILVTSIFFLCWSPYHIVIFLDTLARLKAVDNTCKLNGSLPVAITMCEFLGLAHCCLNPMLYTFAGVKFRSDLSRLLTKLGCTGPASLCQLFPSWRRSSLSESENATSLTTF

ΔPDZ CXCR5 = biological target: T8, ΔPDZ CXCR5 (Homo sapiens, UniProt P32302); assay: Label-free DMR agonist response, HEK293T expressing ΔPDZ CXCR5; format: cell-based
T8 sequence (P32302 1-368 limits assumed): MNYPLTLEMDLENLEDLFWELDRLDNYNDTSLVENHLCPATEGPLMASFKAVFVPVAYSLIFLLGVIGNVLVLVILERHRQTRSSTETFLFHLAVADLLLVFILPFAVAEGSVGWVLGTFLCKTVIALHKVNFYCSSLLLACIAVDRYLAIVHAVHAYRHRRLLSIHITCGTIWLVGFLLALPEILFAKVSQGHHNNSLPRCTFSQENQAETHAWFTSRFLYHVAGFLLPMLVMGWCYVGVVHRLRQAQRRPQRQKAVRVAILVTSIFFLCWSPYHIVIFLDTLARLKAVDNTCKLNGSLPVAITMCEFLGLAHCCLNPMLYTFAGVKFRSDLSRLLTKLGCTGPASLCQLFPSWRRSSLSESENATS

Chain of ΔPDZ S1PR2 (O95136 1-349 limits assumed, stated change not applied): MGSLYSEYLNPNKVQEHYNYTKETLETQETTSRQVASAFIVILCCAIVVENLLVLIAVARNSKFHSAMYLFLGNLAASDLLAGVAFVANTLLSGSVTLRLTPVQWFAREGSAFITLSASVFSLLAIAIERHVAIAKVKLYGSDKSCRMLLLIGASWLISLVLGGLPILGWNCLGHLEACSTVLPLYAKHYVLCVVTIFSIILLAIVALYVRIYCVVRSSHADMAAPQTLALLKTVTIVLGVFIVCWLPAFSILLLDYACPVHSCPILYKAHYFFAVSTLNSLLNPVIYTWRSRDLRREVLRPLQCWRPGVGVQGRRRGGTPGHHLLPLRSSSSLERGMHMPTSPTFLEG
Chain of ΔPDZ HRH3 (Q9Y5N1 1-449 isoform Q9Y5N1-2): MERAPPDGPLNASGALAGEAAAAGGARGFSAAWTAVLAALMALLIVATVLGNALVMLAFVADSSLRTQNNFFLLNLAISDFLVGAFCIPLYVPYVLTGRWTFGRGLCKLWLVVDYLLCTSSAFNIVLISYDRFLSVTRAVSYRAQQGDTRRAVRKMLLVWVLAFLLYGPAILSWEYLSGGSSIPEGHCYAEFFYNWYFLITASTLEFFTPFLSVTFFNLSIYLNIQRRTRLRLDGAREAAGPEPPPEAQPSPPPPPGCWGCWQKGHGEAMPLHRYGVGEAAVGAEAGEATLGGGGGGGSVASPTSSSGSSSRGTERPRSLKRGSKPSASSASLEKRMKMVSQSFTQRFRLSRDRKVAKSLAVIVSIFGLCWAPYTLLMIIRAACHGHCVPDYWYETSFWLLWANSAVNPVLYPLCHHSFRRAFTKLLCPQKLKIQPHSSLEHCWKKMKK
Chain of WT S1PR2 (O95136 whole entry): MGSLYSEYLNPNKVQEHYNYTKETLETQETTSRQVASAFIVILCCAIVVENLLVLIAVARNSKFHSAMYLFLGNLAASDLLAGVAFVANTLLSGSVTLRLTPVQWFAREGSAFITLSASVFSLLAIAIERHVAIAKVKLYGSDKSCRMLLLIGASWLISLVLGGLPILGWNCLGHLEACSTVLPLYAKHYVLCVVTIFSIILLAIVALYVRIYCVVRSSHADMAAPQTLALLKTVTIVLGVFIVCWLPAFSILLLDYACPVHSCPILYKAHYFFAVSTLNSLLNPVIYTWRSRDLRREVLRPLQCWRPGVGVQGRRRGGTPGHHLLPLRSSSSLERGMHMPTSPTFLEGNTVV
Chain of WT HRH3 (Q9Y5N1 1-453 isoform Q9Y5N1-2): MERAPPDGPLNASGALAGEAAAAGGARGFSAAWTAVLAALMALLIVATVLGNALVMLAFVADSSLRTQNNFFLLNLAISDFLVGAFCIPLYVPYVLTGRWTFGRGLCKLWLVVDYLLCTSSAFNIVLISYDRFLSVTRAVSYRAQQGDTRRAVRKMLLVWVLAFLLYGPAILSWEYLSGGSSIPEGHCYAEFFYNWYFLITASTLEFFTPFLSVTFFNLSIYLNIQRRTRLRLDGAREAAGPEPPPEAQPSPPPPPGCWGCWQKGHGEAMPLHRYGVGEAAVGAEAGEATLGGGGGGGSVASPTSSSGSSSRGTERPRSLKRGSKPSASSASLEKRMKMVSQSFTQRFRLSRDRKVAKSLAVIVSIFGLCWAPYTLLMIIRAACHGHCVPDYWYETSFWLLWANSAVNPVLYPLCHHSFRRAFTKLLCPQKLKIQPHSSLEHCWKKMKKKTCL

WT Max (DMR) (WT S1PR2; WT S1PR2, maximal agonist DMR response): −40.54 ± 3.76 | WT TTP (WT S1PR2; WT S1PR2, time to peak DMR): 17.61 s | ΔPDZ Max (DMR) (ΔPDZ S1PR2; ΔPDZ S1PR2, maximal agonist DMR response): −10.16 ± 4.91 | ΔPDZ TTP (ΔPDZ S1PR2; ΔPDZ S1PR2, time to peak DMR): 16.31 s
Molecule: CCCCCCCCCCCCC/C=C/[C@@H](O)[C@@H](N)COP(=O)(O)O [Sphingosine-1-phosphate, sphingosine-1-phosphate]

WT Max (DMR) (WT HRH3; WT HRH3, maximal agonist DMR response): 46.97 ± 3.71 | WT TTP (WT HRH3; WT HRH3, time to peak DMR): 7.30 s | ΔPDZ Max (DMR) (ΔPDZ HRH3; ΔPDZ HRH3, maximal agonist DMR response): 60.19 ± 5.07 | ΔPDZ TTP (ΔPDZ HRH3; ΔPDZ HRH3, time to peak DMR): 6.30 s
Molecule: NCCc1c[nH]cn1 [Histamine, histamine dihydrochloride]

WT pEC50 (WT CXCR1; WT CXCR1, DMR CRC): −8.29 ± 0.07 | WT Max (DMR) (WT CXCR1; WT CXCR1, maximal agonist DMR response): 69.69 ± 1.88 | WT TTP (WT CXCR1; WT CXCR1, time to peak DMR): 3.60 s | ΔPDZ pEC50 (ΔPDZ CXCR1; ΔPDZ CXCR1, DMR CRC): −7.08 ± 0.45 | ΔPDZ Max (DMR) (ΔPDZ CXCR1; ΔPDZ CXCR1, maximal agonist DMR response): 9.48 ± 1.53 | ΔPDZ TTP (ΔPDZ CXCR1; ΔPDZ CXCR1, time to peak DMR): 3.80 s | WT pEC50 (WT CXCR2; WT CXCR2, DMR CRC): −8.53 ± 0.11 | WT Max (DMR) (WT CXCR2; WT CXCR2, maximal agonist DMR response): 34.89 ± 2.08 | WT TTP (WT CXCR2; WT CXCR2, time to peak DMR): 3.20 s | ΔPDZ pEC50 (ΔPDZ CXCR2; ΔPDZ CXCR2, DMR CRC): −8.45 ± 0.13 | ΔPDZ Max (DMR) (ΔPDZ CXCR2; ΔPDZ CXCR2, maximal agonist DMR response): 37.50 ± 2.20 | ΔPDZ TTP (ΔPDZ CXCR2; ΔPDZ CXCR2, time to peak DMR): 3.50 s | WT Max (DMR) (WT CXCR3; WT CXCR3, maximal agonist DMR response): 10.17 ± 2.00 | WT TTP (WT CXCR3; WT CXCR3, time to peak DMR): 11.70 s | ΔPDZ Max (DMR) (ΔPDZ CXCR3; ΔPDZ CXCR3, maximal agonist DMR response): 18.3 ± 3.16 | ΔPDZ TTP (ΔPDZ CXCR3; ΔPDZ CXCR3, time to peak DMR): 15.60 s | WT pEC50 (WT CXCR5; WT CXCR5, DMR CRC): −10.34 ± 0.16 | WT Max (DMR) (WT CXCR5; WT CXCR5, maximal agonist DMR response): 23.22 ± 1.80 | WT TTP (WT CXCR5; WT CXCR5, time to peak DMR): 2.50 s | ΔPDZ pEC50 (ΔPDZ CXCR5; ΔPDZ CXCR5, DMR CRC): −9.97 ± 0.12 | ΔPDZ Max (DMR) (ΔPDZ CXCR5; ΔPDZ CXCR5, maximal agonist DMR response): 40.70 ± 2.54 | ΔPDZ TTP (ΔPDZ CXCR5; ΔPDZ CXCR5, time to peak DMR): 2.30 s
Molecule: interleukin-8
